Measured values: PMC12102336

B1: P3 EMSA probe (dsDNA)
DNA 1: TGTGTCTTAATTAGATTAACGCACTTGATAGTGCGGGCGTGGCT
DNA 2: AGCCACGCCCGCACTATCAAGTGCGTTAATCTAATTAAGACACA
B2: 14mer ITC duplex (dsDNA)
DNA 1: CGCTAATTAGCTCG
DNA 2: CGAGCTAATTAGCG

How the values were obtained:
ALX4 R218Q [1] = molecular target: T1, ALX4 R218Q (Mus musculus (region identical to human), UniProt Q9H161 209-274, R218Q); assay: EMSA
ALX4 R215A;R216A = ALX4 R215A;R216A (Mus musculus (region identical to human), UniProt Q9H161 209-274, R215A;R216A); assay: EMSA
ALX4 R215A;R216A, sequence (Q9H161 209-274 R215A/R216A): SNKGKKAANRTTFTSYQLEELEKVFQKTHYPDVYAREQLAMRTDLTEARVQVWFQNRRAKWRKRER

ALX4 R216A = ALX4 R216A (Mus musculus (region identical to human), UniProt Q9H161 209-274, R216A); assay: EMSA
ALX4 R216A, sequence (Q9H161 209-274 R216A): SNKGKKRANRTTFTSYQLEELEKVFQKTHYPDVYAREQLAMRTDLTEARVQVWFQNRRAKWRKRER

ALX4 R215A = ALX4 R215A (Mus musculus (region identical to human), UniProt Q9H161 209-274, R215A); assay: EMSA
ALX4 R215A, sequence (Q9H161 209-274 R215A): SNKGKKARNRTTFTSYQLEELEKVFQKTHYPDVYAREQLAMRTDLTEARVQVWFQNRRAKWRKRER

ALX4 R216G = ALX4 R216G (Mus musculus (region identical to human), UniProt Q9H161 209-274, R216G); assay: EMSA
ALX4 R216G, sequence (Q9H161 209-274 R216G): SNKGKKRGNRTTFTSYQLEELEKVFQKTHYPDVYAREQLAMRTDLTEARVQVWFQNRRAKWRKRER

ALX4 Q225E = ALX4 Q225E (Mus musculus (region identical to human), UniProt Q9H161 209-274, Q225E); assay: EMSA
ALX4 Q225E, sequence (Q9H161 209-274 Q225E): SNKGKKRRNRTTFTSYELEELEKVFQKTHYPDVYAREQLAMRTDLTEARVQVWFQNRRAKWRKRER

[2] = molecular target: ALX4 169-303;ALX4 HD (209-274) (Mus musculus (region identical to …, UniProt Q9H161;Q9H161 169-303;209-274, |)); assay: EMSA
ALX4 169-303;ALX4 HD (209-274) (Mus musculus, sequence (Q9H161 169-303, chain 1 of 2): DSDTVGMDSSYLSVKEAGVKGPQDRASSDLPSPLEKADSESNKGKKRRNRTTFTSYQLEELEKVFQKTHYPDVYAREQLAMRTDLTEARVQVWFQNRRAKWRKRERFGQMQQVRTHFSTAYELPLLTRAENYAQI
ALX4 169-303;ALX4 HD (209-274) (Mus musculus, sequence (Q9H161 209-274, chain 2 of 2): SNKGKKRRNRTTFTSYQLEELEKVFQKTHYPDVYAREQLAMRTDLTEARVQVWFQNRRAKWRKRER

ALX4 169-303;ALX4 R272P = ALX4 169-303;ALX4 R272P (Mus musculus (region identical to …, UniProt Q9H161;Q9H161 169-303;209-274, |R272P)); assay: EMSA
ALX4 169-303;ALX4 R272P (Mus musculus, sequence (Q9H161 169-303, stated change not applied, chain 1 of 2): as the sequence (Q9H161 169-303, chain 1 of 2) above
ALX4 169-303;ALX4 R272P (Mus musculus, sequence (Q9H161 209-274 R272P, chain 2 of 2): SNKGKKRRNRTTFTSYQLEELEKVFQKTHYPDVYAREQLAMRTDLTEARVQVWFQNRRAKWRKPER

ALX4 169-303;ALX4 K211E = ALX4 169-303;ALX4 K211E (Mus musculus (region identical to …, UniProt Q9H161;Q9H161 169-303;209-274, |K211E)); assay: EMSA
ALX4 169-303;ALX4 K211E (Mus musculus, sequence (Q9H161 169-303, stated change not applied, chain 1 of 2): as the sequence (Q9H161 169-303, chain 1 of 2) above
ALX4 169-303;ALX4 K211E (Mus musculus, sequence (Q9H161 209-274 K211E, chain 2 of 2): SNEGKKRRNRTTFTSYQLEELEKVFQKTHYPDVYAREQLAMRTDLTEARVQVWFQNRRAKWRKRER

ALX4 R272P = ALX4 R272P (Mus musculus (region identical to human), UniProt Q9H161 209-274, R272P); assay: EMSA
ALX4 R272P, sequence (Q9H161 209-274 R272P): as the sequence (Q9H161 209-274 R272P, chain 2 of 2) above

ALX4 K211E = ALX4 K211E (Mus musculus (region identical to human), UniProt Q9H161 209-274, K211E); assay: EMSA
ALX4 K211E, sequence (Q9H161 209-274 K211E): as the sequence (Q9H161 209-274 K211E, chain 2 of 2) above

ALX4 R218Q [3] = molecular target: T1, ALX4 R218Q; assay: ITC

T1 sequence (Q9H161 209-274 R218Q): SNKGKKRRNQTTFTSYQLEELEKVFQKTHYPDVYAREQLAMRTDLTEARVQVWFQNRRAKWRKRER

Binder | binding result (ALX4 R218Q [1]) | binding signal (ALX4 R215A;R216A) | binding signal (ALX4 R216A) | binding signal (ALX4 R215A) | binding signal (ALX4 R216G) | binding signal (ALX4 Q225E) | binding result [2] | binding result (ALX4 169-303;ALX4 R272P) | binding result (ALX4 169-303;ALX4 K211E) | binding result (ALX4 R272P) | binding result (ALX4 K211E) | binding result (ALX4 R218Q [3])
B1 | no binding | ~20 fold reduction of Tau vs WT | ~10 fold reduction of Tau vs WT | ~5 fold reduction of Tau vs WT | ~10 fold reduction of Tau vs WT | ~2 fold reduction of Tau vs WT | binds | binds | binds | binds | binds | 
B2 |  |  |  |  |  |  |  |  |  |  |  | no binding
